pKd: −log10 of the molar value.
Tests used:
[1] = biological target: Gerd_aPriL1, non-catalytic primase subunit PriL (Loki group) of Candidatus Gerdarchaeota archaeon B18_G1 (Candidatus Gerdarchaeota archaeon B18_G1); assay: SPR; BIACORE, CM5 chip; Gerd_ePriL or Gerd_aPriL1 immobilised, Gerd_ePriS concentration gradient (methods; the legend of Figure 3 tells the reverse); 20 mM Hepes pH 7.5, 500 mM NaCl, 0.005% Tween 20, 30 uL/min, 25 °C
[2] = biological target: Gerd_ePriL, non-catalytic primase subunit PriL (Heimdall group) of Candidatus Gerdarchaeota archaeon B18_G1 (Candidatus Gerdarchaeota archaeon B18_G1); assay: as above

Substance: Gerd_ePriS, catalytic primase subunit PriS of Candidatus Gerdarchaeota archaeon B18_G1 (enzyme)
- pKd [1]: 6.98
- pKd [2]: 8.57

Source: paper PMC12770985
